Source: patent US12428446B2, “Peptide compound or pharmaceutically acceptable salt thereof” (Eyebio Korea, priority 2019, dated 2025)
*1 amine or outer side, *2 acyl side, *3 side chain or, on linkers, in order; H or OH if unused. Primed or numbered codes have the meaning given here. Where no end group is shown, it is not given here. [ ]: non-standard residue; d: D form. The star is where a group is joined. Pro(trans-4-NH2) = O=C([C@@H]1C[C@@H](N[*:3])CN1[*:1])[*:2]; Pro(4-methylene) = C=C1CN[C@H](C(=O)O)C1; Pro(4,4-Me2) = CC1(C)CN[C@H](C(=O)O)C1; Asu′ = aspartimide (aminosuccinimide); Hyp = O=C(O)[C@@H]1C[C@@H](O)CN1; dHyp = O=C(O)[C@H]1C[C@H](O)CN1; Tle = CC(C)(C)[C@H](N)C(=O)O; Aib = CC(C)(N)C(=O)O; OiPr = CC(C)O*

What was measured:
[1] = Evaluation of dissolution stability (content change on storage in dissolved state); format: physicochemical; settings: 1 mg/1 ml dissolved state, 40° C. and RH 75%
[2] = tested on: IL-1β secretion, Raw 264.7 cells; assay: Anti-inflammatory efficacy: IL-1β ELISA in LPS-stimulated Raw 264.7 macrophages; format: cell-based, mouse; settings: for IL-1β level increased by LPS: 1 h pretreatment, LPS 1 μg/ml 24 h; for anti-inflammatory effect by regulating the secretion of IL-1β: summary, concentration not given
Description: (§1) An anti-inflammatory efficacy was evaluated for representative examples of the above examples. Specifically, in order to confirm whether Examples 10, 32, 41, 55, 59 and 91, which are representative examples of 5 amino acid residues, Examples 11 and 30, which are representative examples of 6 amino acid residues, Example 86, which is a representative example of 7 amino acid residues, and Examples 103 and 104, which are representative examples of 8 amino acid residues, have an anti-inflammatory effect, a change in the secretion amount of inflammatory cytokines was confirmed by enzyme-linked immunosorbent assay (ELISA) using Raw 264.7 cells, which are macrophage (monocyte) cell lines.
(§2) Specifically, the Examples were diluted in Raw264.7 cells (Korean Cell Line Bank, 40071) at a concentration of 10 nM, 100 nM, 1 μM, and 10 μM, respectively, and pretreated for 1 hour, and then LPS (Sigma, L6529) at a concentration of 1 μg/ml was added to induce an inflammatory response. After 24 hours of induction, the cell culture supernatant was collected and analyzed. Enzyme-linked immunosorbent assay was performed using Mouse IL-6 Quantikine ELISA Kit (R&D systems, M6000B), TNF-alpha Quantikine ELISA Kit (R&D systems, MTA00B), Mouse IL-1 beta/IL-1F2 Quantikine ELISA Kit (R&D systems, MLB00C) in accordance with the manufacturer's manual.

[3] = tested on: TNFα secretion, Raw 264.7 cells; assay: Anti-inflammatory efficacy: TNFα ELISA in LPS-stimulated Raw 264.7 macrophages; format: cell-based, mouse; settings: for TNFα level increased by LPS: 1 h pretreatment, LPS 1 μg/ml 24 h; for anti-inflammatory activity by regulating the secretion of TNFα: summary, concentration not given
Description: as §1, §2

[4] = tested on: IL-6 secretion, Raw 264.7 cells; assay: Anti-inflammatory efficacy: IL-6 ELISA in LPS-stimulated Raw 264.7 macrophages; format: cell-based, mouse
Description: as §1, §2

Row | Substance | Day 1 content (%) [1] [%] | Day 3 content (%) [1] [%] | Day 7 content (%) [1] [%] | Initial content (%) [1] [%] | also measured
1 | Hyp-Gly-Gln-Glu-Leu-Leu-Ala ([Hyp]GQELLA) [Example 86] | 97.40 | 97.77 | 97.55 | 98.16 | IL-1β level increased by LPS ([2]; 10 nM peptide): significantly reduced; IL-1β level increased by LPS ([2]; 1 μM peptide): significantly reduced; IL-1β level increased by LPS ([2]; 10 μM peptide): significantly reduced; anti-inflammatory effect by regulating the secretion of IL-1β [2]: significant anti-inflammatory effect
2 | Hyp-Gly-Gln-Asu-Gly-Leu-Ala-Gly ([Hyp]GQ[Asu′]GLAG) [Example 103] | 97.20 | 96.90 | 94.88 | 97.09 | IL-1β level increased by LPS ([2]; 1 μM peptide): significantly reduced; anti-inflammatory effect by regulating the secretion of IL-1β [2]: significant anti-inflammatory effect
3 | Hyp-Gly-Gln-Asp-Gly ([Hyp]GQDG) [Example 10] | – | 86.65 | 78.68 | 98.76 | IL-1β level increased by LPS ([2]; 100 nM peptide): significantly reduced; IL-1β level increased by LPS ([2]; 1 μM peptide): significantly reduced; anti-inflammatory effect by regulating the secretion of IL-1β [2]: significant anti-inflammatory effect; TNFα level increased by LPS ([3]; 10 nM peptide): significantly reduced; TNFα level increased by LPS ([3]; 1 μM peptide): significantly reduced; anti-inflammatory activity by regulating the secretion of TNFα [3]: significant anti-inflammatory activity
4 | QDGLAG [Example 30] | 95.61 | 94.27 | 91.57 | 96.44 | IL-6 level increased by LPS ([4]; 10 nM peptide, 1 h pretreatment, LPS 1 μg/ml 24 h): significantly reduced; anti-inflammatory activity by regulating the secretion of IL-6 ([4]; summary, concentration not given): significant anti-inflammatory activity
5 | Gln-Asu-Gly-Leu-Ala-Gly-Pro-Lys (Q[Asu′]GLAGPK) [Example 104] | 96.52 | 93.78 | 93.01 | 94.22 | TNFα level increased by LPS ([3]; 10 nM peptide): significantly reduced; anti-inflammatory activity by regulating the secretion of TNFα [3]: significant anti-inflammatory activity
6 | Hyp-Gly-Gln-Glu-Aib-Leu-Ala ([Hyp]GQE[Aib]LA) [Example 92] | 97.05 | 96.92 | 96.56 | 96.92 | –
7 | 4,4-dimethyl Pro-Gly-Gln-Asp-Gly ([Pro(4,4-Me2)]GQDG) [Example 55] | 94.34 | 90.29 | 81.00 | 97.82 | IL-1β level increased by LPS ([2]; 100 nM peptide): significantly reduced; anti-inflammatory effect by regulating the secretion of IL-1β [2]: significant anti-inflammatory effect
8 | Hyp-Gly-Gln-Asp (isopropyl ester)-Gly-Leu-Ala ([Hyp]GQD(OiPr)GLA) [Example 117] | 90.61 | 85.37 | 76.88 | 94.77 | –
9 | Hyp-Gly-Gln-Asp-Gly-Val ([Hyp]GQDGV) [Example 71] | 93.07 | 88.76 | 82.04 | 95.21 | –
10 | Hyp-Gly-Gln-Glu-Leu ([Hyp]GQEL) [Example 90] | 98.58 | 98.32 | 97.94 | 98.68 | –
11 | Hyp-Gly-Gln-Asp-Leu-Leu-Ala ([Hyp]GQDLLA) [Example 38] | 92.19 | 88.19 | 85.93 | 97.06 | –
12 | Hyp-Gly-Gln-D Asp-Gly ([Hyp]GQ[dD]G) [Example 59] | 98.78 | 98.76 | 98.75 | 98.78 | IL-1β level increased by LPS ([2]; 100 nM peptide): significantly reduced; anti-inflammatory effect by regulating the secretion of IL-1β [2]: significant anti-inflammatory effect; anti-inflammatory activity by regulating the secretion of TNFα [3]: significant anti-inflammatory activity
13 | Hyp-Gly-Gln-Asn-Gly-Leu-Ala ([Hyp]GQNGLA) [Example 79] | 97.87 | 81.04 | 76.89 | 94.36 | –
14 | trans-4NH2-Pro-Gly-Gln-Asp-Gly ([Pro(trans-4-NH2)]GQDG) [Example 42] | 65.09 | 52.07 | 37.87 | 71.84 | –
15 | Hyp-Gly-Gln-Aib-Gly-Leu ([Hyp]GQ[Aib]GL) [Example 84] | 97.91 | 97.29 | 96.49 | 97.78 | –
16 | PGQDGLA [Example 78] | 92.18 | 85.14 | 74.01 | 97.41 | –

Row | Substance | Day 1 content (%) [1] [%] | Day 3 content (%) [1] [%] | Day 7 content (%) [1] [%] | Initial content (%) [1] [%] | also measured
17 | Hyp-Val-Gln-Asp-Gly ([Hyp]VQDG) [Example 74] | 92.95 | 85.57 | 79.66 | 98.01 | –
18 | Hyp-Gly-Gln-Asp-Gly-D Leu ([Hyp]GQDG[dL]) [Example 62] | 92.60 | 84.99 | 70.41 | 97.24 | –
19 | Hyp-Gly-Gln-Asp-Val-Leu-Ala-Gly ([Hyp]GQDVLAG) [Example 24] | 96.14 | 95.71 | 95.13 | 96.57 | –
20 | Hyp-Gly-Gln-Glu-tert Leu-Leu-Ala ([Hyp]GQE[Tle]LA) [Example 93] | 98.35 | 98.05 | 97.79 | 98.39 | –
21 | Hyp-Gly-Gln-Ala-Gly-Leu ([Hyp]GQAGL) [Example 122] | 98.66 | 98.56 | 98.27 | 98.82 | –
22 | [dHyp]GQDG [Example 40] | 81.96 | 70.04 | 51.11 | 89.95 | –
23 | Pro-Gly-Gln-Asp-Gly (PGQDG) [Example 76] | 90.01 | 82.34 | 69.13 | 95.07 | –
24 | 4-methylene-Pro-Gly-Gln-Asp-Gly-Leu-Ala ([Pro(4-methylene)]GQDGLA) [Example 54] | 83.66 | 73.59 | 62.48 | 95.42 | –
25 | GLAGPK [Example 26] | 89.41 | 87.99 | 85.43 | 92.17 | –
26 | Hyp-Gly-Gln-Asp-Gly-Leu ([Hyp]GQDGL) [Example 11] | 91.37 | 81.21 | 64.19 | 98.96 | TNFα level increased by LPS ([3]; 10 μM peptide): significantly reduced; anti-inflammatory activity by regulating the secretion of TNFα [3]: significant anti-inflammatory activity
27 | DGLAGPK [Example 19] | 89.94 | 79.26 | 71.50 | 95.90 | –
28 | Hyp-Gly-Gln-Asp-Gly-Leu (isopropyl ester) [Example 107] | 76.34 | 65.41 | 58.41 | 87.55 | –
29 | Hyp-Leu-Gln-Asp-Gly ([Hyp]LQDG) [Example 75] | 91.10 | 75.24 | 61.06 | 98.53 | –
30 | Hyp-Gly-Gln-Asp-Gly-Leu-Ala (isopropyl ester) ([Hyp]GQDGLA-OiPr) [Example 108] | 67.07 | 62.81 | 59.24 | 79.49 | –
31 | Hyp-Gly-D Gln-Asp-Gly ([Hyp]G[dQ]DG) [Example 58] | 98.01 | 97.85 | 97.56 | 98.03 | –
32 | Hyp-Gly-Gln-Ala-Val ([Hyp]GQAV) [Example 119] | 96.33 | 96.18 | 95.89 | 96.39 | –
